The experiment deals with T1, soluble human kallikrein related peptidase 2 (hK2) protein (human, UniProt P20151 19-261).
T1 construct: The stated signal peptide is left out here; also called soluble hK2; KLK2
Briefly: SPR; antibody captured by anti-Fc antibody, soluble hK2 injected; 1:1 Langmuir fit.

T1 sequence (P20151 19-261): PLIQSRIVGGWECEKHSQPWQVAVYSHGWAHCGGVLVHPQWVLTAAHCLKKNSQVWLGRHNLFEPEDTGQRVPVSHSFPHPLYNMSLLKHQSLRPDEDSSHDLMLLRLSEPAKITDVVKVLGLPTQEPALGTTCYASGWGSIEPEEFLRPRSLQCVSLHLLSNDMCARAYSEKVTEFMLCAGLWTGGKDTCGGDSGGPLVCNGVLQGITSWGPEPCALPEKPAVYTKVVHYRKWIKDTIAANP
Procedure: Affinity of selected hK2 antibodies for soluble hK2 was measured by surface plasmon resonance (SPR). […] Antibodies were captured on a sensor chip coated with an anti-Fc antibody followed by injection of soluble hK2 at various concentrations and specified association and dissociation times. Post dissociation, the surface was regenerated with an appropriate solution to prepare for the next interaction. Kinetic information (on-rate and off-rate constants) were extracted by fitting sensorgrams to the 1:1 Langmuir model. Binding affinity (KD) are reported as the ratio of rate constants (koff/kₒₙ).

B1: KL2B467 (Fab) (Fab, V domains shown)
VH: QVQLVESGGGVVQPGRSLRLSCAASGFTFSYYGMHWVRQAPGKGLEWVAFISYDGSNKYYADSVKGRFTISRDNSKNTLYLQMNSLRAEDTAVYYCAHLPYSGSYWAFDYWGQGTQVTVSS
VL: QSVLTQPPSVSVAPGQTASITCGGDNIGSKSVHWYQQKPGQAPVLVVYDNSDRPSGIPERFSGSNSGTTATLTISRVEAGDEADYYCQVWDSSSDHPVVFGGGTKVTV
On to B1, for which binding was characterised by a dissociation constant (Kd) of 0.078 nM.

B2: KL2B30 (Fab) (Fab, V domains shown)
VH: QVQLQESGPGLVKPSETLSLTCTVSGGSISSYYWSWIRQPPGKGLEWIGYIYYSGSTNYNPSLKSRVTISVDTSKNQFSLKLSSVTAADTAVYYCAGTTIFGVVTPNFYYGMDVWGQGTTVTVSS
VL: DIQMTQSPSFLSASVGDRVTITCRASQGISSYLAWYQQKPGKAPKFLIYAASTLQSGVPSRFSGSGSGTEFTLTISSLQPEDFATYYCQQLNSYPLTFGGGTKVEIK
B2: the Kd (as a rule, the equilibrium constant for the complex coming apart) came to 0.46 nM.

B3: KL2B53 (Fab) (Fab, V domains shown)
VH: EVQLVESGGGVVQPGRSLRLSCVASGFTFSSYDIHWVRQAPGKGLEWVAIISYDGSKKDYTDSVKGRFTISRDNSKNTLYLQMDSLRVEDSAVYSCARESGWSHYYYYGMDVWGQGTMVTVSS
VL: DIVMTQSPSSLSASVGDRVTITCRASQDISNYLAWYQQKPGKVPKFLIYAASTLHSGVPSRFSGSGSGTDFTLTISSLQPEDVATYYCQKYNSAPYTFGQGTRLEIK
Molecule B3 gave a Kd of 0.08 nM. This Kd is about 5.8-fold lower than that of the molecule before.

B4: KL2B242 (Fab) (Fab, V domains shown)
VH: QVQLQESGPGLVKPSETLSLTCTVSGGSISSYYWSWLRQPAGSGLEWIGRLYVSGFTNYNPSLKSRVTLSLDPSRNQLSLKLSSVTAADTAVYYCAGDSGNYWGWFDPWGQGTLVTVSS
VL: SYELTQPPSVSVSPGETASITCSGDQLGENYACWYQQKPGQSPVLVIYQDSKRPSGIPERFSGSNSGNTATLTISGTQALDEADYYCQAWDNSIVVFGGGTKLTVL
In turn, B4 showed a Kd of 0.04 nM.

B5: KL2B494 (Fab) (Fab, V domains shown)
VH: QVQLVESGGGLVQPGGSLRLSCAASGFTFSHYAMSWVRQAPGKGLEWVSTIGGSGGSTYYADSVKGRFTISRDNSKNTLYLQMNSLRAEDTAVYYCAKPHIVMVTALLYDGMDVWGQGTMVTVSS
VL: SSELTQPPSVSVAPGQTARITCGGNNIGSKSVHWYQQKPGQAPVLVVYDDSDRPSGIPERFSGSNSGNTATLTISRVEAGDEADYYCQVWDSSSDHVVFGGGTKLTVL
In the case of B5, the affinity, expressed as Kd, was 0.053 nM.

(Values after patent publication US20250099635A1 (Janssen / Centocor, published 2025).)
